Measurements from US20120244161A1 (published 2012).

Target: T1, EpCAM on KatoIII cells (human, UniProt P16422 24-314)
T1 sequence (looked up): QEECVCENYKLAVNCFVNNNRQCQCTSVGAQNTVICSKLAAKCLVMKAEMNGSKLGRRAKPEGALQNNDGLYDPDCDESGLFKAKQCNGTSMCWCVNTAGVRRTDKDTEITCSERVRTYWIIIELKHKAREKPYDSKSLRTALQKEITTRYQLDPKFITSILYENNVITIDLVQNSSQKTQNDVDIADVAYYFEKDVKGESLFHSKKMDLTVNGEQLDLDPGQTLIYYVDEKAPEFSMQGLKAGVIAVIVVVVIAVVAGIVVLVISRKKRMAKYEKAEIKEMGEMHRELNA
Test: cell-based or functional assay

B1: EpCAMxCD3 bispecific single chain antibody MT110 (bispecific antibody)
chain: ELVMTQSPSSLTVTAGEKVTMSCKSSQSLLNSGNQKNYLTWYQQKPGQPPKLLIYWASTRESGVPDRFTGSGSGTDFTLTISSVQAEDLAVYYCQNDYSYPLTFGAGTKLEIKGGGGSGGGGSGGGGSEVQLLEQSGAELVRPGTSVKISCKASGYAFTNYWLGWVKQRPGHGLEWIGDIFPGSGNIHYNEKFKGKATLTADKSSSTAYMQLSSLTFEDSAVYFCARLRNWDEPMDYWGQGTTVTVSSGGGGSDVQLVQSGAEVKKPGASVKVSCKASGYTFTRYTMHWVRQAPGQGLEWIGYINPSRGYTNYADSVKGRFTITTDKSTSTAYMELSSLRSEDTATYYCARYYDDHYCLDYWGQGTTVTVSSGEGTSTGSGGSGGSGGADDIVLTQSPATLSLSPGERATLSCRASQSVSYMNWYQQKPGKAPKRWIYDTSKVASGVPARFSGSGSGTDYSLTINSLEAEDAATYYCQQWSSNPLTFGGGTKVEIK
  EC50 of CD25 upregulation on CD4+ T lymphocytes, human PBMC with 0.2% KatoIII cells, 40 h, flow cytometry: 3.5 ng/mL
  EC50 of CD25 upregulation on CD4+ T lymphocytes, human PBMC with 2% KatoIII cells, 40 h, flow cytometry: 2.35 ng/mL
  EC50 of CD25 upregulation on CD4+ T lymphocytes, human PBMC with 10% KatoIII cells, 40 h, flow cytometry: 0.8 ng/mL
  EC50 of CD25 upregulation on CD8+ T lymphocytes, human PBMC with 0.2% KatoIII cells, 40 h, flow cytometry: 5.98 ng/mL
  EC50 of CD25 upregulation on CD8+ T lymphocytes, human PBMC with 2% KatoIII cells, 40 h, flow cytometry: 0.99 ng/mL
  EC50 of CD25 upregulation on CD8+ T lymphocytes, human PBMC with 10% KatoIII cells, 40 h, flow cytometry: 0.26 ng/mL
